# Assay results as given in patent US20040253247A1 (Genentech, published 2004).
# Read-outs that look alike come from different tables or passages of the source. Bridges are numbered along the chain shown (N, C = ends). Where no end group is shown, it is not given here. code n = not defined here
# T1: ovalbumin (UniProt P01012 2-386)
# T1 sequence (looked up): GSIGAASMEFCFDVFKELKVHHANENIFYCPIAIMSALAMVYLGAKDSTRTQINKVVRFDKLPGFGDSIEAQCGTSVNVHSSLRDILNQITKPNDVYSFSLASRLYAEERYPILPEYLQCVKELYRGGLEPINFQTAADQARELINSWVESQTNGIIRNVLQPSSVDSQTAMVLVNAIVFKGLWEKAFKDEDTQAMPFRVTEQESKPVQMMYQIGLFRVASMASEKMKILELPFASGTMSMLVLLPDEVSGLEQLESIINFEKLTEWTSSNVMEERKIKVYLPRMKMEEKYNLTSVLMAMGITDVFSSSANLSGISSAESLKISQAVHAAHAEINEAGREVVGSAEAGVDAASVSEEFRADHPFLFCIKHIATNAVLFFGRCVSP
# Tests used:
# [1] = target: T1, ovalbumin; experiment: phage ELISA, photograph of the plate
# [2] = target: T2, human albumin (human, UniProt P02768 25-609); experiment: phage ELISA
# Procedure: (§1) Phage ELISA—Phage clones (˜10¹¹ phage) were added to plates coated with rat, rabbit or human albumin. The microtiter plate was washed with wash buffer and bound phage were detected with HRP/Anti-M13 Conjugate. The amount of HRP bound was measured using ABTS/H₂O₂ substrate and monitoring the change at 405 nm.
# (§2) This was tested using a phage ELISA.
# [3] = target: T3, rabbit albumin (rabbit, UniProt P49065 25-608); experiment: phage ELISA
# T3 sequence (P49065 25-608 limits assumed): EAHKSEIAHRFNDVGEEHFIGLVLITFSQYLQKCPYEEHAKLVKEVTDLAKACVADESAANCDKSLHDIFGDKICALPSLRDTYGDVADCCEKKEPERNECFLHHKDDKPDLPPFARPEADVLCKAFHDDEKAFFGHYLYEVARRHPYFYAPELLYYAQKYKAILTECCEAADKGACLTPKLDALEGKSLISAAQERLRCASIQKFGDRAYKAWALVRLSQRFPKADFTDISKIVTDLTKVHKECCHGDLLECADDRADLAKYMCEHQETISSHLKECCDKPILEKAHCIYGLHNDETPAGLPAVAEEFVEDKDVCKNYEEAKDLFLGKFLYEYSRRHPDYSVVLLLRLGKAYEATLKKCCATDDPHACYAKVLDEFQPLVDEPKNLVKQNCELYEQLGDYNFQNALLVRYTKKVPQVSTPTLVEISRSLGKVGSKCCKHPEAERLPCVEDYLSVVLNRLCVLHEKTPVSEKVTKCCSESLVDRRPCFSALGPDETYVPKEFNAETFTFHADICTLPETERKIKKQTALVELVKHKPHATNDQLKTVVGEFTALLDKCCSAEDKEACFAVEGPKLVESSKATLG
# Procedure: as §1, §2
# [4] = target: T4, IgG-Fc (UniProt P01857-1 108-330 = IgG part, limits assumed); experiment: phage ELISA, M13/gIII display, ALA scan
# T4 construct: domain: IgG-Fc; also called biotinylated-IgG-Fc; biotin-IgG-Fc
# [5] = target: T5, rat albumin (rat, UniProt P02770 25-608); experiment: SA08b binding assay: competition with biotinylated SA08b for immobilized albumin
# T5 sequence (P02770 25-608 limits assumed): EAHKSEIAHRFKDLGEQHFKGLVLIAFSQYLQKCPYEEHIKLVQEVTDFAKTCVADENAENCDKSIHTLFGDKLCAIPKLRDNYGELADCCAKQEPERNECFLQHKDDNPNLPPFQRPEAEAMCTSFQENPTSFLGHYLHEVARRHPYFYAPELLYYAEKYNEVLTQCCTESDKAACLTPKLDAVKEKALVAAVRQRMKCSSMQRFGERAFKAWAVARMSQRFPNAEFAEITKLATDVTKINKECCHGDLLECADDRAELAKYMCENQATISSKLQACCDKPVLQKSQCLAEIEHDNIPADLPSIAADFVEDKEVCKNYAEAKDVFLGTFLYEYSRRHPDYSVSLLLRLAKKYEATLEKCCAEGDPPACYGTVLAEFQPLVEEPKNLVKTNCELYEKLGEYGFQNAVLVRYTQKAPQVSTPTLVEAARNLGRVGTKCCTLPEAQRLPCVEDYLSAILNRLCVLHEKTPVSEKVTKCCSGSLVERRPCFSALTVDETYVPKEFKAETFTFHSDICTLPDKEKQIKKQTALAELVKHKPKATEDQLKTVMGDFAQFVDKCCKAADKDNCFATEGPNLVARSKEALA
# Procedure: (§3) Plates were blocked using Blocker Casein (Pierce Chemical, Rockford, Ill.) for 1 hr, at 25° C. […] The amount of HRP bound was measured using ABTS/H₂O₂ substrate and monitoring the change at 405 nm.
# [6] = target: mouse albumin (mouse, UniProt P07724 25-608); experiment: as above
# Sequence of mouse albumin (P07724 25-608 limits assumed): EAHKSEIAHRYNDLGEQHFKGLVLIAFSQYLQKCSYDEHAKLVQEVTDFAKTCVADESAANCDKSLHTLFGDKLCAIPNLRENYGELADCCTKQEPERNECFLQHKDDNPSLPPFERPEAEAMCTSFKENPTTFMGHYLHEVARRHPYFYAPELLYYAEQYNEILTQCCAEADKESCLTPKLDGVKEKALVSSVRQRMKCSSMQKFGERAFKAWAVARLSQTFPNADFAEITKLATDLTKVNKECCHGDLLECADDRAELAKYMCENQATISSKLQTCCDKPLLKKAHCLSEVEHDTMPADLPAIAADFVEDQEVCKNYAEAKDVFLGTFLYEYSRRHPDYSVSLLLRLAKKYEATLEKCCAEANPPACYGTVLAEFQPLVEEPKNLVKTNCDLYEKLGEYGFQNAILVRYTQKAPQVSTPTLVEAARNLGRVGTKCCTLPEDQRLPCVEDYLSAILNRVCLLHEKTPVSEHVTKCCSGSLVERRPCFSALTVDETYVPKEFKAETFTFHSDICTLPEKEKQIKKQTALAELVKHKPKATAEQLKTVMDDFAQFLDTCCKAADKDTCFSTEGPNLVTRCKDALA
# Procedure: as §3
# [7] = target: T3, rabbit albumin; experiment: as above
# Procedure: as §3
# [8] = target: T5, rat albumin; experiment: phage ELISA
# Procedure: as §1, §2
# [9] = target: T5, rat albumin; experiment: phage ELISA; remark: listed apart in the source
# Procedure: as §1
# [10] = target: T3, rabbit albumin; experiment: phage ELISA; remark: listed apart in the source
# Procedure: as §1
# [11] = target: T2, human albumin; experiment: phage ELISA; remark: listed apart in the source
# Procedure: as §1
binder,measurement,setting,value
"QGLIGDICLPRWGCLWGDSV (not fully specified (bridges); printed as Gln-Gly-Leu-Ile-Gly-Asp-Ile-Cys-Leu-Pro-Arg-Trp-Gly-Cys-Leu-Trp-Gly-Asp-Ser-Val; cysteine pairing not given here, phage clone, Library RB) [RB-R8]",binding result,[1],no binding
DTCVDLVRLGLECWG (phage clone selected on rat SA) [RD],binding result,[2],no binding
same,binding result,[3],no binding
WEADCAWHLAELVWCTKVEE (M13/gIII phage display; ALA Scan on Phage) [phage clone WEADCAWHLAELVWCTKVEE],EC50,[4],12 nM
WEADCAWHLGELVWCTAVEE (M13/gIII phage display; ALA Scan on Phage) [phage clone WEADCAWHLGELVWCTAVEE],EC50,[4],10 nM
WEADCAWHLGELVWCTKAEE (M13/gIII phage display; ALA Scan on Phage) [phage clone WEADCAWHLGELVWCTKAEE],EC50,[4],8 nM
WEADCAWHLGALVWCTKVEE (M13/gIII phage display; ALA Scan on Phage) [phage clone WEADCAWHLGALVWCTKVEE],EC50,[4],11 nM
WEADCAWHLGEAVWCTKVEE (M13/gIII phage display; ALA Scan on Phage) [phage clone WEADCAWHLGEAVWCTKVEE],EC50,[4],1890 nM
WEADCAWHLGELVACTKVEE (M13/gIII phage display; ALA Scan on Phage) [phage clone WEADCAWHLGELVACTKVEE],EC50,[4],3380 nM
WEADCAWHLGELVWCTKVAE (M13/gIII phage display; ALA Scan on Phage) [phage clone WEADCAWHLGELVWCTKVAE],EC50,[4],4 nM
WEADCAWHLGELVWCAKVEE (M13/gIII phage display; ALA Scan on Phage) [phage clone WEADCAWHLGELVWCAKVEE],EC50,[4],101 nM
WEADCAWHLGELAWCTKVEE (M13/gIII phage display; ALA Scan on Phage) [phage clone WEADCAWHLGELAWCTKVEE],EC50,[4],4670 nM
WEPDCAWHLGELVWCTKVEE (M13/gIII phage display; ALA Scan on Phage) [phage clone WEPDCAWHLGELVWCTKVEE],EC50,[4],36 nM
"Ac-MEDICLPRWGCLWED-{code n} (disulfide 5-11 (inferred); reading uncertain; also: printed as Met-Glu-Asp-Ile-Cys-Leu-Pro-Arg-Trp-Gly-Cys-Leu-Trp-Glu-Asp, synthesized peptide) [SA12]",IC50,[5],205 nM
same,IC50,[6],13 nM
same,IC50,[7],1760 nM
KSCSELHWLLVEECLF (phage clone selected on rabbit SA) [BD],binding result,[8],no binding
same,binding result,[2],no binding
MDELAFYCGIWECLMHQEQK (phage clone selected on rabbit SA) [BB],binding result,[8],no binding
same,binding result,[2],no binding
"Ac-MEDICLPRWGCLWEDD-{code n} (disulfide 5-11 (inferred); reading uncertain; also: printed as Met-Glu-Asp-Ile-Cys-Leu-Pro-Arg-Trp-Gly-Cys-Leu-Trp-Glu-Asp-Asp, synthesized peptide) [SA11]",IC50,[5],232 nM
same,IC50,[6],17 nM
same,IC50,[7],1210 nM
"Ac-EDICLPRWGCLWEDD-{code n} (disulfide 4-10 (inferred); reading uncertain; also: printed as Glu-Asp-Ile-Cys-Leu-Pro-Arg-Trp-Gly-Cys-Leu-Trp-Glu-Asp-Asp, synthesized peptide) [SA09]",IC50,[5],258 nM
same,IC50,[6],6 nM
same,IC50,[7],1690 nM
"MEDICLPRWGCLWED-{code n} (disulfide 5-11 (inferred); reading uncertain; also: printed as Met-Glu-Asp-Ile-Cys-Leu-Pro-Arg-Trp-Gly-Cys-Leu-Trp-Glu-Asp, synthesized peptide) [SA05]",IC50,[5],161 nM
same,IC50,[6],6 nM
same,IC50,[7],804 nM
CGCVDVSDWDCWSECLWSHGA (phage clone selected on rat SA) [RE],binding result,[2],no binding
same,binding result,[3],no binding
"DSEVCYFPGICWSGT (phage clone, Library HBC) [HBC-H1]",binding result,[9],no binding
same,binding result,[10],no binding
same,binding result,[1],no binding
DLCLRDWGCLW (phage clone selected on rat SA) [RC],binding result,[2],no binding
same,binding result,[3],no binding
"QRHPEDICLPRWGCLWGDDD (not fully specified (bridges); cysteine pairing not given here, phage clone, Library RB) [RB-H1]",binding result,[1],no binding
"QGLIGDICLPRWGCLWGDSV-{code n} (disulfide 8-14 (inferred); reading uncertain; also: printed as Gln-Gly-Leu-Ile-Gly-Asp-Ile-Cys-Leu-Pro-Arg-Trp-Gly-Cys-Leu-Trp-Gly-Asp-Ser-Val, synthesized peptide) [SA07]",IC50,[5],35 nM
same,IC50,[6],6 nM
same,IC50,[7],30 nM
"DTCADLVRLGLECWA (phage clone, Library RD) [RD-R2]",binding result,[11],no binding
same,binding result,[10],no binding
same,binding result,[1],no binding
DLCDVDFCWF (phage clone selected on rabbit SA) [BC],binding result,[8],no binding
same,binding result,[2],no binding
"DICLPRWGCLW-{code n} (disulfide 3-9 (inferred); reading uncertain; also: printed as Asp-Ile-Cys-Leu-Pro-Arg-Trp-Gly-Cys-Leu-Trp, synthesized peptide) [SA04]",IC50,[5],787 nM
same,IC50,[6],40 nM
same,IC50,[7],8540 nM
GENWCDSTLMAYDLCGQVNM (phage clone selected on rabbit SA) [BA],binding result,[8],no binding
same,binding result,[2],no binding
"RAPESFVCYWETICFERSEQ (not fully specified (bridges); printed as Arg-Ala-Pro-Glu-Ser-Phe-Val-Cys-Tyr-Trp-Glu-Thr-Ile-Cys-Phe-Glu-Arg-Ser-Glu-Gln; cysteine pairing not given here, phage clone selected on human SA) [HB]",binding result,[8],binds
same,binding result,[2],binds
same,binding result,[3],no binding
RNEDPCVVLLEMGLECWEGV (phage clone selected on rat SA) [RA],binding result,[2],no binding
same,binding result,[3],no binding
"HSQMEDICLPRWGCLWGDEL (not fully specified (bridges); cysteine pairing not given here, phage clone, Library RB) [RB-B8]",binding result,[1],no binding
